Measured values from the supplement of paper PMC9112550, “Optimization of the antimicrobial peptide Bac7 by deep mutational scanning” (BMC Biology, 2022).

System: Escherichia coli TOP10
Test: shrunken log2 fold change of peptide-encoding DNA abundance (4.5 h post-induction vs induction); higher = less antimicrobial activity (less host growth inhibition)
Conditions: time post-induction: 4.5 h; library: site-saturation at positions 5, 18, 19, 20
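Note: peptides expressed intracellularly from a pBAD plasmid library in pooled LB shake-flask culture, induced with 0.3% L-arabinose, DNA abundance read by NGS, three biological replicates, DESeq2 with apeglm shrinkage.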

| Sequence | shrunken log2 fold change |
| --- | --- |
| RRIRARPPRLPRPRPRPMEIPRP | 0.146 |
| RRIRFRPPRLPRPRPRPVVQPRP | -0.119 |
| RRIRQRPPRLPRPRPRPQNCPRP | 0.0179 |
| RRIRYRPPRLPRPRPRPMMIPRP | -0.00702 |
| RRIRVRPPRLPRPRPRPHGEPRP | 0.0918 |
| RRIRLRPPRLPRPRPRPIGEPRP | -0.169 |
| RRIRKRPPRLPRPRPRPFTIPRP | 0.0665 |
| RRIRKRPPRLPRPRPRPTLRPRP | 1.01 |
| RRIRQRPPRLPRPRPRPYGHPRP | -0.473 |
| RRIRMRPPRLPRPRPRPGMYPRP | 0.124 |
| RRIRARPPRLPRPRPRPWFLPRP | -0.399 |
| RRIRKRPPRLPRPRPRPRQAPRP | 1.79 |
| RRIRPRPPRLPRPRPRPSLFPRP | -0.344 |
| RRIRHRPPRLPRPRPRPLEDPRP | 0.0039 |
| RRIRVRPPRLPRPRPRPDLWPRP | 0.115 |
| RRIRTRPPRLPRPRPRPKYFPRP | -0.444 |
| RRIRRRPPRLPRPRPRPKSEPRP | 0.0316 |
| RRIRDRPPRLPRPRPRPGPVPRP | 0.545 |
| RRIRPRPPRLPRPRPRPDHKPRP | -0.334 |
| RRIRNRPPRLPRPRPRPYKYPRP | -0.369 |
| RRIRTRPPRLPRPRPRPGRSPRP | 0.194 |
| RRIRPRPPRLPRPRPRPKLEPRP | 0.121 |
| RRIRMRPPRLPRPRPRPEVFPRP | 1.35 |
| RRIRDRPPRLPRPRPRPNSMPRP | 0.0952 |
| RRIRWRPPRLPRPRPRPIIIPRP | 0.117 |

| Sequence | shrunken log2 fold change |
| --- | --- |
| RRIRKRPPRLPRPRPRPYYWPRP | -0.281 |
| RRIRKRPPRLPRPRPRPDKNPRP | 0.159 |
| RRIRIRPPRLPRPRPRPNNMPRP | -0.959 |
| RRIRVRPPRLPRPRPRPDYNPRP | -0.554 |
| RRIRKRPPRLPRPRPRPCRQPRP | -0.166 |
| RRIRGRPPRLPRPRPRPNEIPRP | 0.559 |
| RRIRGRPPRLPRPRPRPISFPRP | 0.0122 |
| RRIRQRPPRLPRPRPRPESCPRP | -0.0209 |
| RRIRLRPPRLPRPRPRPLRNPRP | 0.737 |
| RRIRTRPPRLPRPRPRPVVYPRP | -0.418 |
| RRIRDRPPRLPRPRPRPFKGPRP | -0.617 |
| RRIRKRPPRLPRPRPRPCTEPRP | 0.0485 |
| RRIRKRPPRLPRPRPRPTYYPRP | -0.442 |
| RRIRRRPPRLPRPRPRPFKEPRP | 0.00168 |
| RRIRCRPPRLPRPRPRPVQIPRP | -0.0351 |
| RRIRDRPPRLPRPRPRPMFPPRP | -0.257 |
| RRIRARPPRLPRPRPRPIHSPRP | -0.184 |
| RRIRQRPPRLPRPRPRPWFNPRP | -0.359 |
| RRIRERPPRLPRPRPRPGRTPRP | 0.251 |
| RRIRFRPPRLPRPRPRPNLPPRP | -0.454 |
| RRIRMRPPRLPRPRPRPVAYPRP | 0.214 |
| RRIRFRPPRLPRPRPRPNMNPRP | -0.953 |
| RRIRCRPPRLPRPRPRPDMWPRP | 0.104 |
| RRIRQRPPRLPRPRPRPVWMPRP | -0.00887 |
| RRIRVRPPRLPRPRPRPDNHPRP | 0.0415 |
